Earlier results in publication PMC2865993.

Molecular target: actin filament (sides) (Oryctolagus cuniculus) (UniProt P68135)

Kd: 3 µM
Substance: formin (mDia1 FH2) FH2 (from UniProt O08808)
